Measurements published in patent publication US20170056488A1.

Target: HLA-A*02 (human)
Assay: UV ligand exchange, anti-b2m ELISA; exchange yield grade

peptide exchange yield: 20 to 49%
B1: VLLRVLIL (peptide)
peptide: VLLRVLIL
